The target of this series is T1, LBD37 (Arabidopsis thaliana, UniProt Q9FN11 1-250).
T1 sequence: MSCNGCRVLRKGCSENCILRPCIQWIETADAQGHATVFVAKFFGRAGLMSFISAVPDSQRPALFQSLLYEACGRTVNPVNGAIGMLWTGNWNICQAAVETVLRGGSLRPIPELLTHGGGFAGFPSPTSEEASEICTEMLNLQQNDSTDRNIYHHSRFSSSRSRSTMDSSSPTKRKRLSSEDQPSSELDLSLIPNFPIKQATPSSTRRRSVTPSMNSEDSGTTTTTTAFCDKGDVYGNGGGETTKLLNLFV
In words: EMSA; 5 mM HEPES-KOH pH 8.0, 50 mM KCl, 1 mM DTT, 10% glycerol, 20 uL, on ice 60 min; 5% native PAGE in TBE. To be noted: protein: recombinant; tags: MBP (N-terminal, pMAL-c2X); (LightShift chemiluminescent kit). A general note: A gel shift assay detects complexes by their altered migration in electrophoresis.

B1: NRT2.1 promoter probe, mutated LOB motif (dsDNA)
DNA 1: AGACTAGGAAGATGCTTGAAAAGAAAATGGATTCCTCGAAA
DNA 2: TTTCGAGGAATCCATTTTCTTTTCAAGCATCTTCCTAGTCT
B1: the binding result is recorded as “no binding”.

Source of the values: article PMC9555238, “Interaction of BES1 and LBD37 transcription factors modulates brassinosteroid-regulated root forging response under low nitrogen in arabidopsis”.
